Measurements: patent US20200368208, “Protein Translation Inhibitors and Uses Thereof” (University of Baltimore, Maryland, published 2020)

T1: hnRNP A18 (CIRP), full length, GST fusion (UniProt Q14011 Q14011:1-172)
T1 sequence: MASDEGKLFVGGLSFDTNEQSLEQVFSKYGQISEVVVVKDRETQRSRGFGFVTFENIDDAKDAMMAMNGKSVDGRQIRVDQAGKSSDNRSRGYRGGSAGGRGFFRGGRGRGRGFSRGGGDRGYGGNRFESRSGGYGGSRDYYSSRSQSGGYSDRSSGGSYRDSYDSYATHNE

T2: hnRNP A18 (CIRP), full length, His-tagged (UniProt Q14011 Q14011:1-172)
T2 sequence: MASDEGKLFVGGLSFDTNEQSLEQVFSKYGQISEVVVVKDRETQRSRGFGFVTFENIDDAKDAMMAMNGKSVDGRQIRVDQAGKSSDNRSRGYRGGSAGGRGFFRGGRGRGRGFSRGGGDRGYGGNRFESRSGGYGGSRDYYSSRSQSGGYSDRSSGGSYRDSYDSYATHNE


How the values were obtained:
[1] = target: T1, hnRNP A18 (CIRP), full length, GST …; assay: FP; 25 C, 30 min; binding competed by small molecules (compound 1 IC50 6.4 uM; compounds 5, 2, 3, 4 IC50 2.9, 15, 13, 39 uM); no Kd given; conditions: tags: GST; label: 3' T-fluorescein (position 5 of thymine, 6-carbon spacer)
[2] = target: T2, hnRNP A18 (CIRP), full length, …; assay: EMSA; 1 ug protein in 20 ul; competed by compounds 1-6; conditions: tags: His; label: 3' biotin
Description: RNA band shifts were performed according to the manufacturer recommendations (LightShift Chemiluminescent RNA EMSA kit, Thermo Scientific, Rockford, Ill.). Briefly recombinant His-hnRNP A18 or His-hnRNP A1 (1 μg) were incubated with biotinylated RNA (hnRNP A18 motif 1, IRE 28 or 51 nucleotides) in 20 μl and run on native polyacrylamide gels transfer to nylon probes and hybridize with streptavidin HRP antibody.

| Binder | binding result [1] | binding result [2] |
| --- | --- | --- |
| hnRNP A18 motif 1 fluorescein (ssRNA) RNA: GCAGAUCCAGGGUGGGAUUUUCUUGAGGAAGUUACAAAUAAGCUUGUUACA | binds |  |
| hnRNP A18 motif 1 biotin (ssRNA) RNA: GCAGAUCCAGGGUGGGAUUUUCUUGAGGAAGUUACAAAUAAGCUUGUUACA |  | binds |
